In publication PMC10945584, “Dual recognition of multiple signals in bacterial outer membrane proteins enhances assembly and maintains membrane integrity” (eLife, 2024):
Values joined by “and” are separate entries in the source; they are usually repeats but may differ in a detail not shown here. Identical values can stand only once.

Columns and labels:
[1] = target: the molecule itself; assay: native gel or EMSA; 35S-labeled substrate incubated with E. coli microsomal membranes (EMM) at 30 °C, membranes solubilised in 1.5% DDM, BN-PAGE and radio-imaging
[2] = target: the molecule itself; assay: native gel or EMSA; EMM from E. coli strains solubilised with 1.5% DDM, BN-PAGE and immunoblotting
[3] = target: the molecule itself; assay: SDS-PAGE of unboiled samples after folding into detergent micelles; 5 μM urea-denatured OmpC in 10 mM phosphate pH 8.0, 2 mM EDTA, 1 mM glycine, 3.4 mM DDM, 37 °C up to 36 h; samples boiled or kept at room temperature

Protein | stoichiometry N [1] | further results
35S-labeled OmpF, in vitro translated (natural protein, Escherichia coli, UniProt P02931 1-362, looked up, 35S-methionine label, OmpF, E. coli; source: in vitro translated (rabbit reticulocyte lysate, 35S-methionine)) MMKRNILAVIVPALLVAGTANAAEIYNKDGNKVDLYGKAVGLHYFSKGNGENSYGGNGDMTYARLGFKGETQINSDLTGYGQWEYNFQGNNSEGADAQTGNKTRLAFAGLKYADVGSFDYGRNYGVVYDALGYTDMLPEFGGDTAYSDDFFVGRVGGVATYRNSNFFGLVDGLNFAVQYLGKNERDTARRSNGDGVGGSISYEYEGFGIVGAYGAADRTNLQEAQPLGNGKKAEQWATGLKYDANNIYLAANYGETRNATPITNKFTNTSGFANKTQDVLLVAQYQFDFGLRPSIAYTKSKAKDVEGIGDVDLVNYFEVGATYYFNKNMSTYVDYIINQIDSDNKLGVGSDDTVAVGIVYQF | 3 | 
35S-labeled LamB, in vitro translated (natural protein, Escherichia coli, UniProt P02943 1-446, looked up, 35S-methionine label, LamB (maltoporin), E. coli; also called maltoporin; source: in vitro translated (rabbit reticulocyte lysate, 35S-methionine)) MMITLRKLPLAVAVAAGVMSAQAMAVDFHGYARSGIGWTGSGGEQQCFQTTGAQSKYRLGNECETYAELKLGQEVWKEGDKSFYFDTNVAYSVAQQNDWEATDPAFREANVQGKNLIEWLPGSTIWAGKRFYQRHDVHMIDFYYWDISGPGAGLENIDVGFGKLSLAATRSSEAGGSSSFASNNIYDYTNETANDVFDVRLAQMEINPGGTLELGVDYGRANLRDNYRLVDGASKDGWLFTAEHTQSVLKGFNKFVVQYATDSMTSQGKGLSQGSGVAFDNEKFAYNINNNGHMLRILDHGAISMGDNWDMMYVGMYQDINWDNDNGTKWWTVGIRPMYKWTPIMSTVMEIGYDNVESQRTGDKNNQYKITLAQQWQAGDSIWSRPAIRVFATYAKWDEKWGYDYTGNADNNANFGKAVPADFNGGSFGRGDSDEWTFGAQMEIWW | 3 | 
35S-labeled OmpC(Y286A), in vitro translated (natural protein, Escherichia coli, UniProt P06996 1-367, looked up, 35S-methionine label, OmpC, E. coli; also called internal signal mutant; source: in vitro translated (rabbit reticulocyte lysate, 35S-methionine)) MKVKVLSLLVPALLVAGAANAAEVYNKDGNKLDLYGKVDGLHYFSDNKDVDGDQTYMRLGFKGETQVTDQLTGYGQWEYQIQGNSAENENNSWTRVAFAGLKFQDVGSFDYGRNYGVVYDVTSWTDVLPEFGGDTYGSDNFMQQRGNGFATYRNTDFFGLVDGLNFAVQYQGKNGNPSGEGFTSGVTNNGRDALRQNGDGVGGSITYDYEGFGIGGAISSSKRTDAQNTAAYIGNGDRAETYTGGLKYDANNIYLAAQYTQTYNATRVGSLGWANKAQNFEAVAQAQFDFGLRPSLAYLQSKGKNLGRGYDDEDILKYVDVGATYYFNKNMSTYVDYKINLLDDNQFTRDAGINTDNIVALGLVYQF | 3 | 
FLAG-OmpC expressed in E. coli (natural protein, Escherichia coli, UniProt P06996 22-367, looked up, OmpC, E. coli; Two plasmid names are printed for FLAG-OmpC; also called FLAG-OmpC(WT); FLAG-tagged form of OmpC; not shown: FLAG, N-terminal, kept) AEVYNKDGNKLDLYGKVDGLHYFSDNKDVDGDQTYMRLGFKGETQVTDQLTGYGQWEYQIQGNSAENENNSWTRVAFAGLKFQDVGSFDYGRNYGVVYDVTSWTDVLPEFGGDTYGSDNFMQQRGNGFATYRNTDFFGLVDGLNFAVQYQGKNGNPSGEGFTSGVTNNGRDALRQNGDGVGGSITYDYEGFGIGGAISSSKRTDAQNTAAYIGNGDRAETYTGGLKYDANNIYLAAQYTQTYNATRVGSLGWANKAQNFEAVAQYQFDFGLRPSLAYLQSKGKNLGRGYDDEDILKYVDVGATYYFNKNMSTYVDYKINLLDDNQFTRDAGINTDNIVALGLVYQF |  | stoichiometry N [2]: 2 and 3
OmpF, endogenous (natural protein, Escherichia coli (endogenous), UniProt P02931 23-362, looked up, OmpF, E. coli; also called endogenous OmpF; trimeric OmpF; source: endogenous, E. coli membrane fractions (EMM)) AEIYNKDGNKVDLYGKAVGLHYFSKGNGENSYGGNGDMTYARLGFKGETQINSDLTGYGQWEYNFQGNNSEGADAQTGNKTRLAFAGLKYADVGSFDYGRNYGVVYDALGYTDMLPEFGGDTAYSDDFFVGRVGGVATYRNSNFFGLVDGLNFAVQYLGKNERDTARRSNGDGVGGSISYEYEGFGIVGAYGAADRTNLQEAQPLGNGKKAEQWATGLKYDANNIYLAANYGETRNATPITNKFTNTSGFANKTQDVLLVAQYQFDFGLRPSIAYTKSKAKDVEGIGDVDLVNYFEVGATYYFNKNMSTYVDYIINQIDSDNKLGVGSDDTVAVGIVYQF |  | stoichiometry N [2]: 3 and 2
OmpC, His6-tagged, purified, urea-denatured (natural protein, Escherichia coli, UniProt P06996 22-367, looked up, OmpC, E. coli; also called OmpC(WT); native OmpC protein; source: E. coli BL21(DE3)*, inclusion bodies, purified in 6 M urea (Ni-NTA)) AEVYNKDGNKLDLYGKVDGLHYFSDNKDVDGDQTYMRLGFKGETQVTDQLTGYGQWEYQIQGNSAENENNSWTRVAFAGLKFQDVGSFDYGRNYGVVYDVTSWTDVLPEFGGDTYGSDNFMQQRGNGFATYRNTDFFGLVDGLNFAVQYQGKNGNPSGEGFTSGVTNNGRDALRQNGDGVGGSITYDYEGFGIGGAISSSKRTDAQNTAAYIGNGDRAETYTGGLKYDANNIYLAAQYTQTYNATRVGSLGWANKAQNFEAVAQYQFDFGLRPSLAYLQSKGKNLGRGYDDEDILKYVDVGATYYFNKNMSTYVDYKINLLDDNQFTRDAGINTDNIVALGLVYQF |  | stoichiometry N [3]: 3 and 2
35S-labeled OmpC, in vitro translated (natural protein, Escherichia coli, UniProt P06996 1-367, looked up, 35S-methionine label, OmpC, E. coli; also called 35S-OmpC; OmpC(WT); source: in vitro translated (rabbit reticulocyte lysate, 35S-methionine)) MKVKVLSLLVPALLVAGAANAAEVYNKDGNKLDLYGKVDGLHYFSDNKDVDGDQTYMRLGFKGETQVTDQLTGYGQWEYQIQGNSAENENNSWTRVAFAGLKFQDVGSFDYGRNYGVVYDVTSWTDVLPEFGGDTYGSDNFMQQRGNGFATYRNTDFFGLVDGLNFAVQYQGKNGNPSGEGFTSGVTNNGRDALRQNGDGVGGSITYDYEGFGIGGAISSSKRTDAQNTAAYIGNGDRAETYTGGLKYDANNIYLAAQYTQTYNATRVGSLGWANKAQNFEAVAQYQFDFGLRPSLAYLQSKGKNLGRGYDDEDILKYVDVGATYYFNKNMSTYVDYKINLLDDNQFTRDAGINTDNIVALGLVYQF | 3 | 
